Measured values as given in patent publication US20260184809A1 (Genmab, published 2026).

T1: recombinant cynomolgus monkey EpCAM (R&D systems, cat no. 10451-EP) (cynomolgus monkey, UniProt Q1WER1 24-265 (rhesus entry))
T1 construct: also called cynomolgus monkey EpCAM extracellular domain
T1 sequence: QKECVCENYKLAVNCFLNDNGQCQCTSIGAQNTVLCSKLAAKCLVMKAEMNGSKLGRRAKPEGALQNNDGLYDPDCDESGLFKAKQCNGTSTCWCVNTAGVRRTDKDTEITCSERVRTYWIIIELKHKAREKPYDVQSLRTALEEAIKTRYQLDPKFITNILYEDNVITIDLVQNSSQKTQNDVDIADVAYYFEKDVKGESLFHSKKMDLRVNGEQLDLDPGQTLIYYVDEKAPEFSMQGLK


Assays:
[1] = target: T1, recombinant cynomolgus monkey EpCAM …; assay: BLI (Octet HTX); recombinant cynomolgus monkey EpCAM on anti-Penta-HIS sensors, antibody 1.56-100 nM in solution
[2] = target: T2, His-tagged FcRn (SinoBiological, cat. no. CT009-H08H-B) (UniProt P55899 24-297; P61769 21-119); assay: SPR kinetics at pH 6.0; His-tagged FcRn captured, antibody 0-100 nM as analyte
T2 construct: also called neonatal Fc receptor
T2 sequence (P55899 24-297 limits assumed, form in doubt, chain 1 of 2): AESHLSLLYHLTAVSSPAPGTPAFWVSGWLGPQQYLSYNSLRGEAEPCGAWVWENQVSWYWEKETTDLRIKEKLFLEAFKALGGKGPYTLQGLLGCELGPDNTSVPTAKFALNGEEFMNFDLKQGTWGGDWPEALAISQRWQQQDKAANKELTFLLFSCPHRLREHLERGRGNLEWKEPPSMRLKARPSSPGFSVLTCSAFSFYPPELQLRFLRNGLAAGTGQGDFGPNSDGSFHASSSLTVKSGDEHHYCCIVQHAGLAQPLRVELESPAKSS
T2 sequence (P61769 21-119 limits assumed, form in doubt, chain 2 of 2): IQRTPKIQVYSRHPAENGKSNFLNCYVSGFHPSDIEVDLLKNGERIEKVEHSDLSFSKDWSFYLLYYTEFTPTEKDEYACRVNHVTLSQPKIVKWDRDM

[3] = target: FcγRIa (CD64 Protein, Human, Recombinant (His Tag), Biotinylated; SinoBiological 10256-H08S-B) (human, UniProt P12314 16-288); assay: SPR (Biacore 8K), His-tagged FcγR captured on anti-His chip, antibody as analyte, endpoint response against concentration
Chain of FcγRIa (CD64 Protein, Human, Recombinant (His Tag), Biotinylated; SinoBiological 10256-H08S-B) (P12314 16-288 limits assumed, stated change not applied): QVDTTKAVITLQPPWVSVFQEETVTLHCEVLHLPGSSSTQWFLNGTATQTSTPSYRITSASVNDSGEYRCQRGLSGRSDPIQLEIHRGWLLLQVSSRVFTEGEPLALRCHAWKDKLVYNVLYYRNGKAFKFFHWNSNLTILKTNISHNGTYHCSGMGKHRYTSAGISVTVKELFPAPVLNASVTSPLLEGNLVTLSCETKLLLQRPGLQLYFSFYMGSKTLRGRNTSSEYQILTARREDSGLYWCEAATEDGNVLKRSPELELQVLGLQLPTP

[4] = target: T2, His-tagged FcRn (SinoBiological, cat. …); assay: SPR kinetics at pH 6.0; His-tagged FcRn captured, antibody 0-100 nM as analyte; mean

Row | Binder | Response [1] | koff [2] | kon [2] | EC50 (read off the curve) [3] | Kd [4]
1 | BisG2amm-EpCAM-323-A3-AALT/m4-1BB-3H3-AAKR (bispecific antibody, mouse IgG2a, kappa, also called BsIgG2amm-EpCAM-323-A3-AALT/m4-1BB-3H3-AAKR; BisIgG2amm-EpCAM-323-A3-AALT/m4-1BB-3H3-AAKR) heavy 1: QIQLVQSGPELKKPGETVKISCKASGYTFTNYGMNWVRQASGEGLKWMGWINTYTGEPTYGEDFKGRFAFSLETSASTAYLQINNLKNEDTATYFCARFGNYVDYWGQGTTLTVSSAKTTAPSVYPLAPVCGDTTGSSVTLGCLVKGYFPEPVTLTWNSGSLSSGVHTFPAVLQSDLYTLSSSVTVTSSTWPSQSITCNVAHPASSTKVDKKIEPRGPTIKPCPPCKCPAPNAAGGPSVFIFPPKIKDVLMISLSPMVTCVVVDVSEDDPDVQISWFVNNVEVLTAQTQTHREDYNSTLRVVSALPIQHQDWMSGKEFKCKVNNKALPAPIERTISKPKGSVRAPQVYVLPPPEEEMTKKQVTLTCMVTDFMPEDIYVEWTNNGKTELNYKNTEPVLDSDGSYLMYSKLTVEKKNWVERNSYSCSVVHEGLHNHHTTKSFSRTPG light 1: DIVMTQAAFSNPVTLGTSASISCRSSKNLLHSNGITYLYWYLQKPGQSPHLLIYQMSNLASGVPDRFSSSGSGTDFTLRISRVEAEDVGVYYCAQNLEIPRTFGGGTKLEIKRADAAPTVSIFPPSSEQLTSGGASVVCFLNNFYPKDINVKWKIDGSERQNGVLNSWTDQDSKDSTYSMSSTLTLTKDEYERHNSYTCEATHKTSTSPIVKSFNRNEC heavy 2: EMQLVESGGGLVQPGRSMKLSCAGSGFTLSDYGVAWVRQAPKKGLEWVAYISYAGGTTYYRESVKGRFTISRDNAKSTLYLQMDSLRSEDTATYYCTIDGYGGYSGSHWYFDFWGPGTMVTVSSAKTTAPSVYPLAPVCGDTTGSSVTLGCLVKGYFPEPVTLTWNSGSLSSGVHTFPAVLQSDLYTLSSSVTVTSSTWPSQSITCNVAHPASSTKVDKKIEPRGPTIKPCPPCKCPAPNAAGGPSVFIFPPKIKDVLMISLSPMVTCVVVDVSEDDPDVQISWFVNNVEVLTAQTQTHREDYNSTLRVVSALPIQHQDWMSGKEFKCKVNNKALPAPIERTISKPKGSVRAPQVYVLPPPEEEMTKKQVTLTCMVKDFMPEDIYVEWTNNGKTELNYKNTEPVLDSDGSYFMYSRLRVEKKNWVERNSYSCSVVHEGLHNHHTTKSFSRTPG light 2: DIQMTQSPSLLSASVGDRVTLNCRTSQNVYKNLAWYQQKLGEAPKLLIYNANSLQAGIPSRFSGSGSGTDFTLTISSLQPEDVATYFCQQYYSGNTFGAGTNLELKRADAAPTVSIFPPSSEQLTSGGASVVCFLNNFYPKDINVKWKIDGSERQNGVLNSWTDQDSKDSTYSMSSTLTLTKDEYERHNSYTCEATHKTSTSPIVKSFNRNEC | 0.02 nm |  |  |  | 
2 | IgG1-b12 (wild-type Fc) (antibody) heavy: not shown light: EIVLTQSPGTLSLSPGERATFSCRSSHSIRSRRVAWYQHKPGQAPRLVIHGVSNRASGISDRFSGSGSGTDFTLTITRVEPEDFALYYCQVYGASSYTFGQGTKLERKRTVAAPSVFIFPPSDEQLKSGTASVVCLLNNFYPREAKVQWKVDNALQSGNSQESVTEQDSKDSTYSLSSTLTLSKADYEKHKVYACEVTHQGLSSPVTKSFNRGEC |  | 0.0322 s⁻¹ | 1.1e+06 M⁻¹ s⁻¹ | ~50 nM | 29 nM
